According to patent WO2020219978A1:

Tests used:
[1] = target: cynomolgus BCMA (cyno-BCMA), as used in SPR (cynomolgus monkey); experiment: SPR
[2] = target: BCMA on the BCMA+ cell lines (NCI-H929, L363, JJN-3, RPMI-8226, HEK293T-huBCMA, HEK293T-cynoBCMA); experiment: flow cytometry on BCMA+ cell lines

cynomolgus BCMA (cyno-BCMA), as used in SPR (cynomolgus monkey), sequence (chain, as listed by the source): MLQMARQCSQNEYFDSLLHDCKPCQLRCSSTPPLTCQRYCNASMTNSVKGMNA

Question: For “CC-93269, bispecific trivalent anti-BCMA/anti-CD3 T cell engaging antibody (TCE) (bispecific antibody)”, which fold higher affinity than to rodent BCMA [1] is on record?
Answer: 10 fold

Question: What about the EC50 [2] of the same substance?
Answer: 3.4 to 15.2 nM
